Non-standard residues stand in square brackets, D forms with d. No end group written: not given here. NMeR = CN[C@@H](CCCNC(=N)N)C(=O)O; Nle = CCCC[C@H](N)C(=O)O
How the values were obtained:
CD47 [1] = molecular target: T1, CD47 (UniProt Q08722 19-323, limits assumed); test: Microscale thermophoresis (MST); NT-647-labelled Jurkat or MEC-1 cell membrane preparation held constant, peptide titrated; linear peptide PKT16, FIG. 5
T1 construct: whole, on cells; The assay used a labelled whole membrane preparation from Jurkat or MEC-1 cells, not purified CD47; also called CD47 receptor
Method: (§1) Jurkat or Mec-1 cell membrane preparations are labeled using the Nanotemper NT-647 labeling kit as described elsewhere.xliv The labeled preparation is eluted with PBS and stored at 4° C. A stock solution of each peptide is prepared in DMSO (5 mM) and then diluted with PBS. For the peptides evaluated by MST, we have kept the concentration of the NT.115-labeled membrane constant, while the concentration of the ligand (peptide) was varied. After a short incubation the samples were loaded into MST premium glass capillaries and the MST analysis was performed using the Monolith NT.115-pico. […]
(§2) Binding affinity measurements. The binding affinities of peptides, here PKT16, PKTD1, PKTD10, PKTD10-1, PKTD10-3, PKTD10-5, PKDT10-7 and PKTD10-8 for a membrane preparation from Jurkat and/or MEC-1 cells were measured by Microscale Thermophoresis ^xlv on a Monolith NT115-pico system (Nanotemper Technologies, Munich, Germany).
(§3) Binding curve measured by MST. […] A local temperature difference ΔT leads to a local change in molecule concentration (depletion or enrichment), quantified by the Soret coefficient ST: cₕₒₜ/ccold=exP(−STΔT). […] For the peptides evaluated by MST, we have kept the concentration of the NT.115-labeled membrane constant, while the concentration of the ligand (peptide) was varied.

CD47 [2] = molecular target: T1, CD47; test: Microscale thermophoresis (MST); NT-647-labelled Jurkat or MEC-1 cell membrane preparation held constant, peptide titrated; cyclic peptide PKTD10, FIG. 6
Method: as §1, §2, §3

CD47 [3] = molecular target: T1, CD47; test: Microscale thermophoresis (MST); NT-647-labelled Jurkat or MEC-1 cell membrane preparation held constant, peptide titrated; cyclic peptide PKTD1, FIG. 6
Method: as §1, §2, §3

T1 sequence (Q08722 19-323 limits assumed): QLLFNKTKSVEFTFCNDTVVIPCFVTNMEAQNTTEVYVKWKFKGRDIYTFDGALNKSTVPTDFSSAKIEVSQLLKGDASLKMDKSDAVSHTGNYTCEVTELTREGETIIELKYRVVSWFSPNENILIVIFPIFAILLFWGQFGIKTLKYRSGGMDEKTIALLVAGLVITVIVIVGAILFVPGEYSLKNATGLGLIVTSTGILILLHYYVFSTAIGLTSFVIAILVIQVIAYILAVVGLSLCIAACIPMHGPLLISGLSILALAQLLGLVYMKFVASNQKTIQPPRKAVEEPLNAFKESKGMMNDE

B1: PKT16 [(D)Lys-(N-Me)Arg-Phe-Tyr-Val-Val-Nle-Trp-Lys-(D)Lys] (peptide)
peptide: [dK][NMeR]FYVV[Nle]WK[dK]
notes: also called linear PKT16 peptide
For B1, the Kd (CD47 [1]) was 1600 nM.

B2: PKTD10 (peptide)
peptide: SRFYVVMWKPPGLSVKVVNS
HELM: PEPTIDE1{S.R.F.Y.V.V.M.W.K.[dP].P.G.L.S.V.K.V.V.N.S}$PEPTIDE1,PEPTIDE1,1:R1-20:R2$$$V2.0
SMILES: CSCC[C@@H]1NC(=O)[C@H](C(C)C)NC(=O)[C@H](C(C)C)NC(=O)[C@H](Cc2ccc(O)cc2)NC(=O)[C@H](Cc2ccccc2)NC(=O)[C@H](CCCNC(=N)N)NC(=O)[C@H](CO)NC(=O)[C@H](CO)NC(=O)[C@H](CC(N)=O)NC(=O)[C@H](C(C)C)NC(=O)[C@H](C(C)C)NC(=O)[C@H](CCCCN)NC(=O)[C@H](C(C)C)NC(=O)[C@H](CO)NC(=O)[C@H](CC(C)C)NC(=O)CNC(=O)[C@@H]2CCCN2C(=O)[C@H]2CCCN2C(=O)[C@H](CCCCN)NC(=O)[C@H](Cc2c[nH]c3ccccc23)NC1=O
notes: Cyclic peptide, linear representation -S-R-F-Y-V-V-M-W-K-p-P-G-L-S-V-K-V-V-N-S-
With B2 the Kd (CD47 [2]) was 49 nM.

B3: PKTD1 (peptide)
peptide: SRFYVVMWKPPGISVKVVKS
HELM: PEPTIDE1{S.R.F.Y.V.V.M.W.K.[dP].P.G.I.S.V.K.V.V.K.S}$PEPTIDE1,PEPTIDE1,1:R1-20:R2$$$V2.0
SMILES: CC[C@H](C)[C@@H]1NC(=O)CNC(=O)[C@@H]2CCCN2C(=O)[C@H]2CCCN2C(=O)[C@H](CCCCN)NC(=O)[C@H](Cc2c[nH]c3ccccc23)NC(=O)[C@H](CCSC)NC(=O)[C@H](C(C)C)NC(=O)[C@H](C(C)C)NC(=O)[C@H](Cc2ccc(O)cc2)NC(=O)[C@H](Cc2ccccc2)NC(=O)[C@H](CCCNC(=N)N)NC(=O)[C@H](CO)NC(=O)[C@H](CO)NC(=O)[C@H](CCCCN)NC(=O)[C@H](C(C)C)NC(=O)[C@H](C(C)C)NC(=O)[C@H](CCCCN)NC(=O)[C@H](C(C)C)NC(=O)[C@H](CO)NC1=O
notes: Cyclic peptide, linear representation -S-R-F-Y-V-V-M-W-K-p-P-G-I-S-V-K-V-V-K-S-
B3 was tested, and the Kd (CD47 [3]) was 1.9 nM.

From patent publication US20190135865A1 (SORBONNE UNIVERSITE, published 2019)
